Results reported in patent US20250197483A1.
Residue numbers refer to the chain shown, from its start.

B1: N6LS.C1 (antibody, V domains shown)
VH: RAHLVQSGTAMKKPGASVRVSCQTSGYTFTAHILFWFRQAPGRGLEWVGWIKPQYGAVNFGGGFRDRVTLTRQLSQDPDDPDWGIAYMDIDGLKPDDTAVYYCARDRSYGDSSWALDAWGQGTTVVVSA
VL: YIHVTQSPSSLSVSIGDDVTINCQTSQGVGSDLHWYQHKPGRAPKLLIHHTSSVEDGVPSRFSGSGFHTSFNLTISDLQADDIATYYCQVLQFFGRGSRLHIKR
B2: N6LS.C30 (antibody, V domains shown)
VH: B1 VH with K13E, D91R
VL: B1 VL with D18E
B3: VRC07-523LS.v14 (antibody, V domains shown)
VH: QVRLSQSGGQMKKPGDSMRISCDASGYEFINCPINWIRLAPGKRPEWMGWMKPRFGAVSYARQLQGRVTMTRQLSQDPDDPDWGTAFLELRSLTSDDTAVYFCTRGKYCTARDYYNWDFEHWGQGTPVTVSS
VL: LTQSPGTLSLSPGETAIISCDTSQYGSLAWYQQRPGQAPRLVIYSGSTRAAGIPDRFSGSRWGPDYNLTISNLESGDFGVYYCQQYEFFGQGTKVQVDI
B4: VRC07-523LS.v32 (antibody, V domains shown)
VH: B3 VH with D23S, K107S
VL: B3 VL with D21S

Target: HIV-1 Env of the 208-virus panel (Env-pseudoviruses)
Assay: cell-based or functional assay

Binder	neutralization of Env-pseudoviruses on TZM-bl cells, share of the panel at IC80 <1 µg/ml (% of 208 viruses)	neutralization of Env-pseudoviruses on TZM-bl cells, share of the panel at IC80<1 µg/ml (% of viruses (208-virus panel))	neutralization of Env-pseudoviruses on TZM-bl cells, share of the panel at IC80 less than 1 µg/ml (% of the 208-virus panel)
B1	> 73	73	
B2	> 73	77	
B3			92
B4			92
